Experimental data from patent publication US20120028913A1 (BIOKINE THERAPEUTICS, published 2012).
Blank lines part the entries; values can stand above or below the binder they belong to. Bridges are numbered along the chain shown (N, C = ends). Where no end group is shown, it is not given here. The star is where a group is joined. Biotin = O=C1N[C@H]2[C@H](CS[C@H]2CCCCC(=O)*)N1

Columns and labels:
Human MCP-1 (MCAF) [1] = biological target: T1, Human MCP-1 (MCAF) (human, UniProt P13500 24-99); assay: Bound chemokines (at least); screen vs control proteins
T1 construct: bought recombinant chemokine

Human MCP-1 (MCAF) [2] = biological target: T1, Human MCP-1 (MCAF); assay: as above; remark: listed apart in the source
[3] = biological target: T2, human IL-8, (72 amino acids) (human, UniProt P10145 28-99); assay: cell-based or functional assay
T2 sequence (looked up): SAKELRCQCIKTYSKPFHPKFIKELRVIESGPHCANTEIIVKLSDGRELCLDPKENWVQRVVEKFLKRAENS

human MIG [4] = biological target: T3, human MIG (human, UniProt Q07325 23-125); assay: cell-based or functional assay
T3 sequence (looked up): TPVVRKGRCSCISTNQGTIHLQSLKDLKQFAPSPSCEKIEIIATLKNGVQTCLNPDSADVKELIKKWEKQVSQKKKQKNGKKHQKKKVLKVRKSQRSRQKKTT

human MIG [5] = biological target: T3, human MIG; assay: Bound chemokines (at least); screen vs control proteins
human Eotaxin [6] = biological target: T4, human Eotaxin (human, UniProt P51671 24-97); assay: as above
T4 construct: bought recombinant chemokine

human Eotaxin [7] = biological target: T4, human Eotaxin; assay: cell-based or functional assay
[8] = biological target: T2, human IL-8, (72 amino acids); assay: Bound chemokines (at least); screen vs control proteins
human Eotaxin [9] = biological target: T4, human Eotaxin; assay: peptide-containing carriers, binding vs control proteins (FIG. 1)
Human SDF-1α [10] = biological target: T5, Human SDF-1α (human, UniProt P48061-2 22-89); assay: Bound chemokines (at least); screen vs control proteins
T5 construct: bought recombinant chemokine; also called SDF-1 alpha

[11] = biological target: T2, human IL-8, (72 amino acids); assay: as above; remark: listed apart in the source
Human SDF-1α [12] = biological target: T5, Human SDF-1α; assay: ELISA on chemokine-coated plates, fold over control proteins (FIG. 3)
Experimental: (§1) NUNC-Immuno maxisorp plates (Cat. No. 4-42404) were coated with the appropriate chemokine (0.1 ml/well, 0.1-1.0 μg/ml in 0.1 M NaHCO₃, pH 8.6), overnight at 4° C. The plates were then blocked with 0.2 ml/well of blocking buffer (5 mg/ml BSA in 0.1 NaHCO₃). Control wells were treated with blocking buffer alone, with no addition of target protein (chemokine). The plates were washed 6 times with PBST (0.1% Tween 20 in PBS), followed by incubation for 45 minutes at room temperature with 10-fold serial dilutions of individual synthetic peptides (10 pg-10 μg) with 1% BSA (PBST-BSA)/well. After the plates were washed 6 times with PBST, the bound peptides were probed by HRP-SA Conjugate, diluted 1:10,000 to 1:20,000 in PBST-BSA, 0.1 ml/well for 45 minutes at room temperature. The target-bound synthetic peptides probed with HRP-SA were quantified by DAKO TMB one-step substrate system, followed by the addition of stop solution, HCl—H₂SO₄ mixture (0.1 ml/well) ON HCl, 3N H₂SO₄). The results were analyzed by ELISA reader at OD₄₅₀.
(§2) As discussed above, the level of binding was calculated by comparing binding of the peptides to the chemokines with peptide binding to controls. Level of control binding was defined as level 1 (up to a one-fold increase in binding). This control binding level is illustrated in the Figure as a dashed line.

[13] = biological target: T2, human IL-8, (72 amino acids); assay: as above
Experimental: as §1, §2

Human MCP-1 (MCAF) [14] = biological target: T1, Human MCP-1 (MCAF); assay: as above
Experimental: as §1, §2

human Eotaxin [15] = biological target: T4, human Eotaxin; assay: as above
Experimental: as §1, §2

human MIG [16] = biological target: T3, human MIG; assay: as above
Experimental: as §1, §2

T1 sequence (P13500 24-99 limits assumed): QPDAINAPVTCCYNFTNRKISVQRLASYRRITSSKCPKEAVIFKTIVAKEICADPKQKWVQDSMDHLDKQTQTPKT
T5 sequence (P48061 22-89 limits assumed): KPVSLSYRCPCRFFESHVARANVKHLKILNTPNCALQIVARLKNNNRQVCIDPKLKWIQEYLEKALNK

B1: BKT-P26 (peptide)
peptide: VHTSLLQKHPLP
binding result (Human MCP-1 (MCAF) [1]): binds

B2: BKT-P49 (peptide)
peptide: HSACHASLKHRC
modifications: not fully specified (bridges); cysteine pairing not given here
binding result (Human MCP-1 (MCAF) [1]): binds

B3: BKT-P46 (peptide)
peptide: LDYPIPQTVLHH
binding result (Human MCP-1 (MCAF) [2]): binds

B4: BKT-P45 (peptide)
peptide: HHFHLPKLRPPVGGGSK(Biotin)G
Level of Antagonistic Effect (T cell arrest under laminar flow on VCAM-1 plus chemokine) [3]: 100%
Level of Antagonistic Effect (T cell arrest under laminar flow on VCAM-1 plus chemokine) (human MIG [4]): 20%

B5: BKT-P50 (peptide)
peptide: CAHLSPHKC
modifications: not fully specified (bridges); cysteine pairing not given here
binding result (human MIG [5]): binds

B6: BKT-P33 (peptide)
peptide: GVHKHFYSRWLG
binding result (human Eotaxin [6]): binds

B7: BKT-P2 (peptide)
peptide: SIPSHSIHSAKAGGGSK(Biotin)G
Level of Antagonistic Effect (T cell arrest under laminar flow on VCAM-1 plus chemokine) (human MIG [4]): 50%

B8: BKT-P55 (peptide)
peptide: HHTWDTRIWQAF
binding result (Human MCP-1 (MCAF) [2]): binds

B9: BKT-P44 (peptide)
peptide: AHSLKSITNHGL
binding result (Human MCP-1 (MCAF) [1]): binds

B10: BKT-P39 (peptide)
peptide: SAGHIHEAHRPLGGGSK(Biotin)G
Level of Antagonistic Effect (T cell arrest under laminar flow on VCAM-1 plus chemokine) (human Eotaxin [7]): 100%

B11: BKT-P27 (peptide)
peptide: GDFNSGHHTTTR
binding result (Human MCP-1 (MCAF) [2]): binds

B12: BKT-P51 (peptide)
peptide: ESDLTHALHWLG
binding result (Human MCP-1 (MCAF) [1]): binds

B13: BKT-P52 (peptide)
peptide: WSAHIVPYSHKP
binding result (Human MCP-1 (MCAF) [1]): binds

B14: BKT-P40 (peptide)
peptide: SAISDHRAHRSH
binding result [8]: binds

B15: BKT-P53 (peptide)
peptide: YATQHNWRLKHE
binding result (Human MCP-1 (MCAF) [1]): binds

Further lines, results first:

binding result (human Eotaxin [9]): binds
B16: BKT-P22/38 (peptide)
peptide: LGFDPTSTRFYT
notes: the carrier is not described; also called BKT-P38

binding result (Human MCP-1 (MCAF) [2]): binds
B17: BKT-P47 (peptide)
peptide: TRLVPSRYYHHP

binding result (human Eotaxin [6]): binds
B18: BKT-P34 (peptide)
peptide: SVQTRPLFHSHF

binding result (Human SDF-1α [10]): binds
B19: BKT-P56 (peptide)
peptide: CHHNLSWEC
modifications: not fully specified (bridges); cysteine pairing not given here

binding result [11]: binds
B20: BKT-P37 (peptide)
peptide: LLADTTHHRPWP
notes: the carrier is not described

binding result (Human SDF-1α [12]): no binding
binding result [13]: no binding
binding result (Human MCP-1 (MCAF) [14]): no binding
binding result (human Eotaxin [15]): no binding
binding result (human MIG [16]): no binding
B21: BKT-P18 (peptide)
peptide: ACKESATYFCGGGSK(Biotin)G
modifications: disulfide 2-10 (inferred)
notes: general synthetic cyclic format applied; also called control peptide

binding result (Human MCP-1 (MCAF) [1]): binds
B22: BKT-P48 (peptide)
peptide: ACHASLKHRC
modifications: not fully specified (bridges); cysteine pairing not given here
